Tm data for 16 proteins are collected here from FireProtDB (doi:10.1126/science.aai7825).

B1: Probable L,D-transpeptidase YnhG wild type, P76193 (protein)
chain: MKRASLLTLTLIGAFSAIQAAWAVDYPLPPTGSRLVGQNQTYTVQEGDKNLQAIARRFDTAAMLILEANNTIAPVPKPGTTITIPSQLLLPDAPRQGIIVNLAELRLYYYPPGENIVQVYPIGIGLQGLETPVMETRVGQKIPNPTWTPTAGIRQRSLERGIKLPPVVPAGPNNPLGRYALRLAHGNGEYLIHGTSAPDSVGLRVSSGCIRMNAPDIKALFSSVRTGTPVKVINEPVKYSVEPNGMRYVEVHRPLSAEEQQNVQTMPYTLPAGFTQFKDNKAVDQKLVDKALYRRAGYPVSVSSGATPAASNAPSVESAQNGEPEQGNMLRVTQ
B2: Outer membrane porin C wild type, P06996 (protein)
chain: MKVKVLSLLVPALLVAGAANAAEVYNKDGNKLDLYGKVDGLHYFSDNKDVDGDQTYMRLGFKGETQVTDQLTGYGQWEYQIQGNSAENENNSWTRVAFAGLKFQDVGSFDYGRNYGVVYDVTSWTDVLPEFGGDTYGSDNFMQQRGNGFATYRNTDFFGLVDGLNFAVQYQGKNGNPSGEGFTSGVTNNGRDALRQNGDGVGGSITYDYEGFGIGGAISSSKRTDAQNTAAYIGNGDRAETYTGGLKYDANNIYLAAQYTQTYNATRVGSLGWANKAQNFEAVAQYQFDFGLRPSLAYLQSKGKNLGRGYDDEDILKYVDVGATYYFNKNMSTYVDYKINLLDDNQFTRDAGINTDNIVALGLVYQF
B3: Glutathione S-transferase YfcF wild type, P77544 (protein)
chain: MSKPAITLWSDAHFFSPYVLSAWVALQEKGLSFHIKTIDLDSGEHLQPTWQGYGQTRRVPLLQIDDFELSESSAIAEYLEDRFAPPTWERIYPLDLENRARARQIQAWLRSDLMPIREERPTDVVFAGAKKAPLTAEGKASAEKLFAMAEHLLVLGQPNLFGEWCIADTDLALMINRLVLHGDEVPERLVDYATFQWQRASVQRFIALSAKQSG
B4: FKBP-type peptidyl-prolyl cis-trans isomerase FkpA wild type, P45523 (protein)
chain: MKSLFKVTLLATTMAVALHAPITFAAEAAKPATAADSKAAFKNDDQKSAYALGASLGRYMENSLKEQEKLGIKLDKDQLIAGVQDAFADKSKLSDQEIEQTLQAFEARVKSSAQAKMEKDAADNEAKGKEYREKFAKEKGVKTSSTGLVYQVVEAGKGEAPKDSDTVVVNYKGTLIDGKEFDNSYTRGEPLSFRLDGVIPGWTEGLKNIKKGGKIKLVIPPELAYGKAGVPGIPPNSTLVFDVELLDVKPAPKADAKPEADAKAADSAKK
B5: Uncharacterized Nudix hydrolase YfcD wild type, P65556 (protein)
chain: MEQRRLASTEWVDIVNEENEVIAQASREQMRAQCLRHRATYIVVHDGMGKILVQRRTETKDFLPGMLDATAGGVVQADEQLLESARREAEEELGIAGVPFAEHGQFYFEDKNCRVWGALFSCVSHGPFALQEDEVSEVCWLTPEEITARCDEFTPDSLKALALWMKRNAKNEAVETETAE
B6: Phospho-2-dehydro-3-deoxyheptonate aldolase, Phe-sensitive wild type, P0AB91 (protein)
chain: MNYQNDDLRIKEIKELLPPVALLEKFPATENAANTVAHARKAIHKILKGNDDRLLVVIGPCSIHDPVAAKEYATRLLALREELKDELEIVMRVYFEKPRTTVGWKGLINDPHMDNSFQINDGLRIARKLLLDINDSGLPAAGEFLDMITPQYLADLMSWGAIGARTTESQVHRELASGLSCPVGFKNGTDGTIKVAIDAINAAGAPHCFLSVTKWGHSAIVNTSGNGDCHIILRGGKEPNYSAKHVAEVKEGLNKAGLPAQVMIDFSHANSSKQFKKQMDVCADVCQQIAGGEKAIIGVMVESHLVEGNQSLESGEPLAYGKSITDACIGWEDTDALLRQLANAVKARRG
B7: Elongation factor P-like protein wild type, P0A6N8 (protein)
chain: MPRANEIKKGMVLNYNGKLLLVKDIDIQSPTARGAATLYKMRFSDVRTGLKVEERFKGDDIVDTVTLTRRYVDFSYVDGNEYVFMDKEDYTPYTFTKDQIEEELLFMPEGGMPDMQVLTWDGQLLALELPQTVDLEIVETAPGIKGASASARNKPATLSTGLVIQVPEYLSPGEKIRIHIEERRYMGRAD
B8: Imidazole glycerol phosphate synthase subunit HisH wild type, P60595 (protein)
chain: MNVVILDTGCANLNSVKSAIARHGYEPKVSRDPDVVLLADKLFLPGVGTAQAAMDQVRERELFDLIKACTQPVLGICLGMQLLGRRSEESNGVDLLGIIDEDVPKMTDFGLPLPHMGWNRVYPQAGNRLFQGIEDGAYFYFVHSYAMPVNPWTIAQCNYGEPFTAAVQKDNFYGVQFHPERSGAAGAKLLKNFLEM
B9: Selenide, water dikinase wild type, P16456 (protein)
chain: MSENSIRLTQYSHGAGCGCKISPKVLETILHSEQAKFVDPNLLVGNETRDDAAVYDLGNGTSVISTTDFFMPIVDNPFDFGRIAATNAISDIFAMGGKPIMAIAILGWPINKLSPEIAREVTEGGRYACRQAGIALAGGHSIDAPEPIFGLAVTGIVPTERVKKNSTAQAGCKLFLTKPLGIGVLTTAEKKSLLKPEHQGLATEVMCRMNIAGASFANIEGVKAMTDVTGFGLLGHLSEMCQGAGVQARVDYEAIPKLPGVEEYIKLGAVPGGTERNFASYGHLMGEMPREVRDLLCDPQTSGGLLLAVMPEAENEVKATAAEFGIELTAIGELVPARGGRAMVEIR
B10: 5-amino-6-(5-phospho-D-ribitylamino)uracil phosphatase YbjI wild type, P75809 (protein)
chain: MSIKLIAVDMDGTFLSDQKTYNRERFMAQYQQMKAQGIRFVVASGNQYYQLISFFPEIANEIAFVAENGGWVVSEGKDVFNGELSKDAFATVVEHLLTRPEVEIIACGKNSAYTLKKYDDAMKTVAEMYYHRLEYVDNFDNLEDIFFKFGLNLSDELIPQVQKALHEAIGDIMVSVHTGNGSIDLIIPGVHKANGLRQLQKLWGIDDSEVVVFGDGGNDIEMLRQAGFSFAMENAGSAVVAAAKYRAGSNNREGVLDVIDKVLKHEAPFDQ
B11: Exodeoxyribonuclease III wild type, P09030 (protein)
chain: MKFVSFNINGLRARPHQLEAIVEKHQPDVIGLQETKVHDDMFPLEEVAKLGYNVFYHGQKGHYGVALLTKETPIAVRRGFPGDDEEAQRRIIMAEIPSLLGNVTVINGYFPQGESRDHPIKFPAKAQFYQNLQNYLETELKRDNPVLIMGDMNISPTDLDIGIGEENRKRWLRTGKCSFLPEEREWMDRLMSWGLVDTFRHANPQTADRFSWFDYRSKGFDDNRGLRIDLLLASQPLAECCVETGIDYEIRSMEKPSDHAPVWATFRR
B12: Ribosome-binding ATPase YchF wild type, P0ABU2 (protein)
chain: MGFKCGIVGLPNVGKSTLFNALTKAGIEAANFPFCTIEPNTGVVPMPDPRLDQLAEIVKPQRTLPTTMEFVDIAGLVKGASKGEGLGNQFLTNIRETEAIGHVVRCFENDNIIHVSGKVNPADDIEVINTELALADLDTCERAIHRVQKKAKGGDKDAKAELAVLEKCLPQLENAGMLRALDLSAEEKAAIRYLSFLTLKPTMYIANVNEDGFENNPYLDQVREIAAKEGSVVVPVCAAVEADIAELDDEERDEFMQELGLEEPGLNRVIRAGYKLLNLQTYFTAGVKEVRAWTIPVGATAPQAAGKIHTDFEKGFIRAQTISFEDFITYKGEQGAKEAGKMRAEGKDYIVKDGDVMNFLFNV
B13: Nucleoid-associated protein YejK wild type, P33920 (protein)
chain: MSLDINQIALHQLIKRDEQNLELVLRDSLLEPTETVVEMVAELHRVYSAKNKAYGLFSEESELAQTLRLQRQGEEDFLAFSRAATGRLRDELAKYPFADGGFVLFCHYRYLAVEYLLVAVLSNLSSMRVNENLDINPTHYLDINHADIVARIDLTEWETNPESTRYLTFLKGRVGRKVADFFMDFLGASEGLNAKAQNRGLLQAVDDFTAEAQLDKAERQNVRQQVYSYCNEQLQAGEEIELKSLSKELAGVSEVSFTEFAAEKGYELEESFPADRSTLRQLTKFAGSGGGLTINFDAMLLGERIFWDPATDTLTIKGTPPNLRDQLQRRTSGGN
B14: dTDP-glucose 4,6-dehydratase 2 wild type, P27830 (protein)
chain: MRKILITGGAGFIGSALVRYIINETSDAVVVVDKLTYAGNLMSLAPVAQSERFAFEKVDICDRAELARVFTEHQPDCVMHLAAESHVDRSIDGPAAFIETNIVGTYTLLEAARAYWNALTEDKKSAFRFHHISTDEVYGDLHSTDDFFTETTPYAPSSPYSASKASSDHLVRAWLRTYGLPTLITNCSNNYGPYHFPEKLIPLMILNALAGKSLPVYGNGQQIRDWLYVEDHARALYCVATTGKVGETYNIGGHNERKNLDVVETICELLEELAPNKPHGVAHYRDLITFVADRPGHDLRYAIDASKIARELGWLPQETFESGMRKTVQWYLANESWWKQVQDGSYQGERLGLKG
B15: Probable ketoamine kinase YniA wild type, P77739 (protein)
chain: MWQAISRLLSEQLGEGEIELRNELPGGEVHAAWHLRYAGHDFFVKCDERELLPGFTAEADQLELLSRSKTVTVPKVWAVGADRDYSFLVMDYLPPRPLDAHSAFILGQQIARLHQWSDQPQFGLDFDNALSTTPQPNTWQRRWSTFFAEQRIGWQLELAAEKGIAFGNIDAIVEHIQQRLASHQPQPSLLHGDLWSGNCALGPDGPYIFDPACYWGDRECDLAMLPLHTEQPPQIYDGYQSVSPLPADFLERQPVYQLYTLLNRARLFGGQHLVIAQQSLDRLLAA
B16: Fructose-1,6-bisphosphatase class 1 wild type, P0A993 (protein)
chain: MKTLGEFIVEKQHEFSHATGELTALLSAIKLGAKIIHRDINKAGLVDILGASGAENVQGEVQQKLDLFANEKLKAALKARDIVAGIASEEEDEIVVFEGCEHAKYVVLMDPLDGSSNIDVNVSVGTIFSIYRRVTPVGTPVTEEDFLQPGNKQVAAGYVVYGSSTMLVYTTGCGVHAFTYDPSLGVFCLCQERMRFPEKGKTYSINEGNYIKFPNGVKKYIKFCQEEDKSTNRPYTSRYIGSLVADFHRNLLKGGIYLYPSTASHPDGKLRLLYECNPMAFLAEQAGGKASDGKERILDIIPETLHQRRSFFVGNDHMVEDVERFIREFPDA

One may read the Tm as the temperature at the midpoint of the melting transition.

For this data set the following is noted: Escherichia coli (strain K12); pH 7.5; Thermal; Intensity; HEPES 20mM; transition: 2; whole UniProt chain shown.
As for B1, the Tm came to 44.1 °C. B2: the melting temperature (Tm) was 43.5 °C. Turning to B3, the midpoint of thermal melting (Tm) worked out at 41.6 °C. As to B4, the Tm was 41.8 °C. The value for B5 was 42.1 °C; that for B6 was 41.7 °C. For B7, the melting temperature (Tm) was 43.5 °C. As to B8, the Tm came to 42.4 °C.

In the case of B9, the Tm was determined as 41.7 °C. Consider B10, for which the Tm was found to be 41.2 °C.

As to B11, the Tm was 42.6 °C.

On to B12, for which the melting temperature (Tm) was 41.3 °C. Consider B13, for which the Tm was 42.6 °C.

On to B14, for which the melting temperature (Tm) is 42.3 °C.

As to B15, the midpoint of thermal melting (Tm) stood at 40.4 °C.

For the protein B16, the Tm came out at 42.4 °C.
